Reference: article PMC11346345 (Cell reports, 2024)

Legend:
Assay in all cases: SPR
[1] = target: recombinant GP38 of CCHFV Kosova-Hoti (Crimean-Congo hemorrhagic fever virus, …, UniProt B2BSL7, strain)
[2] = target: recombinant GP38 of CCHFV 200406546-Turkey (Crimean-Congo hemorrhagic fever virus, …, UniProt A0A0U2SQZ0, strain)
[3] = target: recombinant GP38 of CCHFV Oman-199809166 (Crimean-Congo hemorrhagic fever virus, …, UniProt A0A0U3C6Q7, strain)

Measured: Kd

B1: ADI-58048 IgG (antibody, V domains shown)
VH: QLQLQESGPGLVKPSETLSLTCTVSGGSITTSHYYWGWIRQPPGKGLEWVGSMYYSGGIYYNPSLKGRVTISVDTSKNQFSLKLSSVTAADTAVYYCALADAPDDAFDIWGQGTMVTVSS
VL: DIQMTQSPSSLSAFVGDRVTITCRASQSISSYLNWYQQKPGKAPKLLIYAASTLQSGVPSRFSGSGSGTDFTLTISSLQSEDFATYYCQESYSIPFTFGPGTKVDIK
< 0.398 nM: all assays above
